{"source": "the nanobody polyreactivity screen of Harvey et al. (2022)"}
{"assay": "yeast display, Sf9 membrane polyspecificity reagent, FACS + sequencing; frameworks hold sequencing errors", "procedure,_shortened": "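A nanobody's polyreactivity label depends on the gate it was sorted from. Yeast display cells were stained with 10% biotinylated, detergent-solubilized Sf9 membrane reagent for 1 hour at 4 °C, enriched on streptavidin microbeads and sorted by FACS. The low and high (top ~1%) gates were set on anti-HA fluorescence for expression and streptavidin fluorescence for reagent binding.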"}
{"sequence": "QVQLVESGGGLVQAGGSLRLSCAASGSTLYPYDMGWYRQAPGKERELVAAIDSGGSTNYADSVKGRFTISRDNAKNTVYLQMNSLKPEDTAVYYCATEILTAARDTVVYQFYLGYYYWGQGTQVTVSS", "polyreactivity (PSR sort gate)": "low polyreactivity"}
{"sequence": "QVQLVESGGGLVQAGGSLRLSCAASGSTLYQYAMGWYRQAPGKERELVAAITKSGGRTYYADSVKGRFTISRDNAKNTVYLQMNSLKPEDTAVYYCNVVRGSYSSGGDYWGQGTQVTVSA", "polyreactivity (PSR sort gate)": "high polyreactivity"}
{"sequence": "QVQLVESGGGLVQAGGSLRLSCAASGSTLYSYAMGWYRQAPGKERELVAAISIGGRTYYADSVKGRFTISRDNAKNTVYLQMNSLKPEDTAVYYCNKYYGPRTYLSAQGRSYGYWGQGTQVTVSS", "polyreactivity (PSR sort gate)": "high polyreactivity"}
{"sequence": "QVQLVESGGGLVQAGGSLRLSCAASGSTLYTYAMGWYRQAPGKERELVAAISYTGGRTYYADSVKGRFTISRDNAKNTVYLQMNSLKPEDTAVYYCAARFKSVGYDYWGQGTQVTVSS", "polyreactivity (PSR sort gate)": "high polyreactivity"}
{"sequence": "QVQLVESGGGLVQAGGSLRLSCAASGSTLYTYDMGWYRQAPGKERELVASISGSDGSTYYADSVKGRFTISRDNAKNTVYLQMNSLKPEDTAVYYCAVDSYQTGVYFYYVYWDFDLGYWGQGTQVTVSS", "polyreactivity (PSR sort gate)": "low polyreactivity"}
{"sequence": "QVQLVESGGGLVQAGGSLRLSCAASGSTLYWNAMGWYRQAPGKERELVADISSTGRTYYADSVKGRFTISRDNAKNTVYLQMNSLKPEDTAVYYCNADYFFEFDYWGQGTQVTVSS", "polyreactivity (PSR sort gate)": "low polyreactivity"}
{"sequence": "QVQLVESGGGLVQAGGSLRLSCAASGSTLYYNAMGWYRQAPGKERELVAAISWSGGSTYYADSVKGRFTISRDNAKNTVYLQMNSLKPEDTAVYYCAAELSSYYDYDYWGQGTQVTVSS", "polyreactivity (PSR sort gate)": "low polyreactivity"}
{"sequence": "QVQLVESGGGLVQAGGSLRLSCAASGSTLYYNAMGWYRQAPGKERELVAAITSGGSTSYADSVKGRFTISRDNAKNTVYLQMNSLKPEDTAVSSCAAVFYRRFDYWGQGTQVTVSS", "polyreactivity (PSR sort gate)": "low polyreactivity"}
{"sequence": "QVQLVESGGGLVQAGGSLRLSCAASGSTLYYYAMGWYRQAPGKERELVASITGSGGNTYYADSVKGRFTISRDNAKNTVYLQMNSLKPEDTAVYYCAKRHFYRHGAYGYWGQGTQVTVSS", "polyreactivity (PSR sort gate)": "high polyreactivity"}
{"sequence": "QVQLVESGGGLVQAGGSLRLSCAASGSTLYYYAMGWYRQAPGKERELVASITKSGASTYYADSVKGRFTISRDNAKNTVYLLMNSLKPEDTAVYYCAADVGAIYDNAENGYWGQGTQVTVSS", "polyreactivity (PSR sort gate)": "low polyreactivity"}
{"sequence": "QVQLVESGGGLVQAGGSLRLSCAASGSTNYPNAMGWYRQAPGKESELVARISRNGGSTYADSVKGRFTISRDNAKNTVYFQMNSLKPEDTEVYYCARSYASFSWLRTKEPYEYWGQGTQVTVSS", "polyreactivity (PSR sort gate)": "low polyreactivity"}
{"sequence": "QVQLVESGGGLVQAGGSLRLSCAASGSTRLYAMGWYRQAPGKERELVAAIRSSGSSTYYADSVKGRFTISRDNAKNTVYLQMNSLKPEDTAVYYCNADRIRKGWRYDYWGQGTQVTVSS", "polyreactivity (PSR sort gate)": "high polyreactivity"}
{"sequence": "QVQLVESGGGLVQAGGSLRLSCAASGSTSDDNTMGWYRQAPGKERELVAAITWSGGRTSYADSVKGRFTISRDNAKNTVYLQMNSLKPEDTAVYYCAADKSGRGLDYWGQGTQVTVSS", "polyreactivity (PSR sort gate)": "low polyreactivity"}
{"sequence": "QVQLVESGGGLVQAGGSLRLSCAASGSTSDINAMGWYRQAPGKERELVAVITDSSNTDYADSVKGRFTISRDNAKNTVYLQMNSLKPEDTADDYCAADRDEPDPYDYWGQGTQVTVSS", "polyreactivity (PSR sort gate)": "low polyreactivity"}
{"sequence": "QVQLVESGGGLVQAGGSLRLSCAASGSTSDPYGMGWYRQAPGKERELVAAISSNGDSTYYADSVKGRFTLSRDNAKNTVYLQMNSLKPEDTAVYYCAARILYSYHLYDYWGQGTQVTVSS", "polyreactivity (PSR sort gate)": "high polyreactivity"}
{"sequence": "QVQLVESGGGLVQAGGSLRLSCAASGSTSGTNAMGWYRQAPGKERELVATISRRGGSTYYADSVKGRFTISRDNAKNTVYLQMNSLKQDYTAVYYCAARTYGYFLYDYWGQGTQVTVSS", "polyreactivity (PSR sort gate)": "high polyreactivity"}
